According to patent publication US20100272719A1:

Biological target: VEGF (isoform not given)
Assay: cell-based or functional assay

Row | HUVEC tube formation on Matrigel, percent inhibition at 50 µg/ml [%] | HUVEC chemotactic migration (Transwell), percent blocked at 10 µg FP3′ [%] | HUVEC chemotactic migration (Transwell), percent blocked at 20 µg FP3′ [%] | VEGF-induced cell proliferation, percent blocked at 10.7 nM FP3′ [%] | rat aortic ring microvessel sprouting, percent inhibition at 100 µg/ml [%] | rat aortic ring microvessel sprouting, percent inhibition at 200 µg/ml [%] | rat aortic ring vessel outgrowth, more inhibition than Avastin [%] | Substance
1 | 41.3 |  |  |  |  |  |  | Avastin (bevacizumab) (antibody)
2 | 72.3 | 78.3 | 94.7 | 82.6 | 70.4 | 90 | 15 to 33 | FP3′ (FLTd2-KDRd3-KDRd4-Fc chimeric fusion protein) (Fc fusion)
